Data reported in patent publication US20210238569A1.

What was measured:
[1] = biological target: protease-activated RNA polymerase (PA-RNAP) including the HCV protease substrate (UniProt P00806)
[2] = system: TEV protease wild-type substrate sequence ENLYFQSA
[3] = system: target substrate sequence ENLYFESA
[4] = biological target: protease-activated RNA polymerase (PA-RNAP) including the TEV protease substrate (UniProt P00806)
Chain of protease-activated RNA polymerase (PA-RNAP) including the TEV protease substrate (P00806 whole entry, looked up): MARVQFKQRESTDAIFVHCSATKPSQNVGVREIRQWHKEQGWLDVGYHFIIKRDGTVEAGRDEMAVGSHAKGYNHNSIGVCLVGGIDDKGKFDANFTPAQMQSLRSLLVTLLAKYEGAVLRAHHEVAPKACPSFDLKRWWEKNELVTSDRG

Chain of protease-activated RNA polymerase (PA-RNAP) including the HCV protease substrate (P00806 whole entry, looked up): as above

Substance	Western blot of PA-RNAP sensor activation (proteolysis) [1]	cleavage of substrate sequence [2]	cleavage of substrate sequence [3]	Western blot of PA-RNAP sensor activation (proteolysis) [4]
hepatitis C virus (HCV) protease, constitutively active construct that includes the NS4a cofactor peptide	the PA-RNAP sensor is proteolyzed to a smaller band of anticipated molecular weight only in the presence of a cognate protease that can cleave the peptide sequence in each PA-RNAP linker			
tobacco etch virus (TEV) protease, expressed as MBP-TEV fusion protein		Wild-type TEV protease cleaves the substrate sequence ENLYFQSA (SEQ ID NO: 24)	does not cleave the target substrate sequence ENLYFESA (SEQ ID NO: 25)	the PA-RNAP sensor is proteolyzed to a smaller band of anticipated molecular weight only in the presence of a cognate protease that can cleave the peptide sequence in each PA-RNAP linker
